Measured values as given in patent US20230002480A1.

Columns and labels:
Assay in all cases: cell-based or functional assay
[1] = target: HIV-1 Env of pseudovirus Q259.d2.17 (HIV-1)
[2] = target: HIV-1 Env of pseudovirus BJOX028000.10.3 (HIV-1)
[3] = target: HIV-1 Env of pseudovirus CAP210.2.00.E8 (HIV-1)
[4] = target: HIV-1 Env of pseudovirus CAAN5342.A2 (HIV-1)
[5] = target: HIV-1 Env of pseudovirus MS208.A1 (HIV-1)
[6] = target: HIV-1 Env of pseudovirus AC10.0.29 (HIV-1)
[7] = target: HIV-1 Env of pseudovirus 3016.v5.c45 (HIV-1)
[8] = target: HIV-1 Env of pseudovirus RHPA4259.7 (HIV-1)
[9] = target: HIV-1 Env of pseudovirus Ce1172_H1 (HIV-1)
[10] = target: HIV-1 Env of pseudovirus A07412M1.vrc12 (HIV-1)
[11] = target: HIV-1 Env of pseudovirus Ce703010054_2A2 (HIV-1)
[12] = target: HIV-1 Env of pseudovirus REJO4541.67 (HIV-1)
[13] = target: HIV-1 Env of pseudovirus CNE17 (HIV-1)
[14] = target: HIV-1 Env of pseudovirus TRO.11 (HIV-1)
[15] = target: HIV-1 Env of pseudovirus 89-F1_2_25 (HIV-1)
[16] = target: HIV-1 Env of pseudovirus ZM249M.PL1 (HIV-1)
[17] = target: HIV-1 Env of pseudovirus Ce0393_C3 (HIV-1)
[18] = target: HIV-1 Env of pseudovirus 7030102001E5(Rev-) (HIV-1)
[19] = target: HIV-1 Env of pseudovirus R2184.c04 (HIV-1)
[20] = target: HIV-1 Env of pseudovirus Q461.e2 (HIV-1)
[21] = target: HIV-1 Env of pseudovirus WITO4160.33 (HIV-1)
[22] = target: HIV-1 Env of pseudovirus HIV-16845-2.22 (HIV-1)
[23] = target: HIV-1 Env of pseudovirus X2131_C1_B5 (HIV-1)
[24] = target: HIV-1 Env of pseudovirus CNE52 (HIV-1)
[25] = target: HIV-1 Env of pseudovirus HIV-001428-2.42 (HIV-1)
[26] = target: HIV-1 Env of pseudovirus X1254_c3 (HIV-1)
[27] = target: HIV-1 Env of pseudovirus ZM247v1(Rev-) (HIV-1)
[28] = target: HIV-1 Env of pseudovirus 6535.3 (HIV-1)
[29] = target: HIV-1 Env of pseudovirus 6240_08_TA5_4622 (HIV-1)
[30] = target: HIV-1 Env of pseudovirus 231965.c01 (HIV-1)
[31] = target: HIV-1 Env of pseudovirus WEAU_d15_410_787 (HIV-1)
[32] = target: HIV-1 Env of pseudovirus 6545.v4.c1 (HIV-1)
[33] = target: HIV-1 Env of pseudovirus T255-34 (HIV-1)
[34] = target: HIV-1 Env of pseudovirus CNE21 (HIV-1)
[35] = target: HIV-1 Env of pseudovirus Ce2060_G9 (HIV-1)
[36] = target: HIV-1 Env of pseudovirus P1981_C5_3 (HIV-1)
[37] = target: HIV-1 Env of pseudovirus Ce1176_A3 (HIV-1)

NIH 45-46 (antibody)
neutralization IC50 [1]: 0.01 µg/mL | neutralization IC80 [1]: 0.06 µg/mL | IC50, titer in TZM.bl cells [2]: 0.07 µg/mL | IC80, titer in TZM.bl cells [2]: > 50 µg/mL | neutralization IC50 [3]: > 50 µg/mL | neutralization IC80 [3]: > 50 µg/mL | neutralization IC50 [4]: 0.11 µg/mL | neutralization IC80 [4]: 0.33 µg/mL | neutralization IC50 [5]: 0.09 µg/mL | neutralization IC80 [5]: 0.6 µg/mL | neutralization IC50 [6]: 0.42 µg/mL | neutralization IC80 [6]: 1.49 µg/mL | IC50, titer in TZM.bl cells [7]: > 30 µg/mL | IC80, titer in TZM.bl cells [7]: > 30 µg/mL | neutralization IC50 [8]: < 0.05 µg/mL | neutralization IC80 [8]: < 0.05 µg/mL | neutralization IC50 [9]: > 50 µg/mL | neutralization IC80 [9]: > 50 µg/mL | IC50, titer in TZM.bl cells [10]: 0.03 µg/mL | IC80, titer in TZM.bl cells [10]: 0.13 µg/mL | neutralization IC50 [11]: 0.22 µg/mL | neutralization IC80 [11]: 0.97 µg/mL | neutralization IC50 [12]: 3 ng/mL | neutralization IC80 [12]: 0.01 µg/mL | neutralization IC50 [13]: 0.15 µg/mL | neutralization IC80 [13]: 0.55 µg/mL | neutralization IC50 [14]: 1.9 µg/mL | neutralization IC80 [14]: 9.56 µg/mL | IC50, titer in TZM.bl cells [15]: > 50000 ng/mL | IC80, titer in TZM.bl cells [15]: > 50000 ng/mL | neutralization IC50 [16]: 0.02 µg/mL | neutralization IC80 [16]: 0.06 µg/mL | neutralization IC50 [17]: 0.32 µg/mL | neutralization IC80 [17]: 1.07 µg/mL | neutralization IC50 [18]: 0.14 µg/mL | neutralization IC80 [18]: 0.63 µg/mL | IC50, titer in TZM.bl cells [19]: 0.03 µg/mL | IC80, titer in TZM.bl cells [19]: 0.12 µg/mL | neutralization IC50 [20]: 0.06 µg/mL | neutralization IC80 [20]: 0.32 µg/mL | neutralization IC50 [21]: 0.01 µg/mL | neutralization IC80 [21]: 0.08 µg/mL | neutralization IC50 [22]: 2.05 µg/mL | neutralization IC80 [22]: 12.1 µg/mL | IC50, titer in TZM.bl cells [23]: 0.2 µg/mL | IC80, titer in TZM.bl cells [23]: 0.9 µg/mL | neutralization IC50 [24]: 0.03 µg/mL | neutralization IC80 [24]: 0.12 µg/mL | neutralization IC50 [25]: < 1 ng/mL | neutralization IC80 [25]: 0.01 µg/mL | IC50, titer in TZM.bl cells [26]: 0.08 µg/mL | IC80, titer in TZM.bl cells [26]: 0.08 µg/mL | neutralization IC50 [27]: 1.64 µg/mL | neutralization IC80 [27]: > 50 µg/mL | neutralization IC50 [28]: 0.14 µg/mL | neutralization IC80 [28]: 0.28 µg/mL | neutralization IC50 [29]: 0.44 µg/mL | neutralization IC80 [29]: 1.55 µg/mL | IC50, titer in TZM.bl cells [30]: 0.1 µg/mL | IC80, titer in TZM.bl cells [30]: 0.1 µg/mL | neutralization IC50 [31]: 0.01 µg/mL | neutralization IC80 [31]: 0.03 µg/mL | IC50, titer in TZM.bl cells [32]: > 50000 ng/mL | IC80, titer in TZM.bl cells [32]: > 50 µg/mL | IC50, titer in TZM.bl cells [33]: 0.23 µg/mL | IC80, titer in TZM.bl cells [33]: 2.38 µg/mL | neutralization IC50 [34]: 7.53 µg/mL | neutralization IC80 [34]: > 50 µg/mL | neutralization IC50 [35]: 0.14 µg/mL | neutralization IC80 [35]: 0.48 µg/mL | IC50, titer in TZM.bl cells [36]: 0.05 µg/mL | IC80, titer in TZM.bl cells [36]: 0.22 µg/mL | neutralization IC50 [37]: 1.29 µg/mL | neutralization IC80 [37]: 5.55 µg/mL

PGDM1400 (antibody)
IC50 [1]: 0.166 µg/mL | IC80 [1]: > 50 µg/mL | IC50, titer in TZM.bl cells [2]: 0.072 µg/mL | IC80, titer in TZM.bl cells [2]: 0.963 µg/mL | IC50 [3]: 0.034 µg/mL | IC80 [3]: 0.514 µg/mL | IC50 [4]: > 50 µg/mL | IC80 [4]: > 50 µg/mL | IC50 [5]: < 1 ng/mL | IC80 [5]: 0.139 µg/mL | IC50 [6]: 0.105 µg/mL | IC80 [6]: 0.869 µg/mL | IC50, titer in TZM.bl cells [7]: > 50 µg/mL | IC80, titer in TZM.bl cells [7]: > 50 µg/mL | IC50 [8]: 0.447 µg/mL | IC80 [8]: 2.19 µg/mL | IC50 [9]: 0.021 µg/mL | IC80 [9]: 0.06 µg/mL | IC50, titer in TZM.bl cells [10]: 0.032 µg/mL | IC80, titer in TZM.bl cells [10]: 0.127 µg/mL | IC50 [11]: 0.015 µg/mL | IC80 [11]: 0.26 µg/mL | IC50 [12]: 0.028 µg/mL | IC80 [12]: 0.992 µg/mL | IC50 [13]: 7 ng/mL | IC80 [13]: 0.021 µg/mL | IC50 [14]: 0.283 µg/mL | IC80 [14]: 1.38 µg/mL | IC50, titer in TZM.bl cells [15]: 1 ng/mL | IC80, titer in TZM.bl cells [15]: 5 ng/mL | IC50 [16]: 0.016 µg/mL | IC80 [16]: 0.701 µg/mL | IC50 [17]: 0.015 µg/mL | IC80 [17]: 0.044 µg/mL | IC50 [18]: > 50 µg/mL | IC80 [18]: > 50 µg/mL | IC50, titer in TZM.bl cells [19]: 0.003 µg/mL | IC80, titer in TZM.bl cells [19]: 0.012 µg/mL | IC50 [20]: 0.089 µg/mL | IC80 [20]: 0.572 µg/mL | IC50 [21]: < 1 ng/mL | IC80 [21]: 8 ng/mL | IC50 [22]: > 50 µg/mL | IC80 [22]: > 50 µg/mL | IC50, titer in TZM.bl cells [23]: 0.128 µg/mL | IC80, titer in TZM.bl cells [23]: 0.568 µg/mL | IC50 [24]: 1.15 µg/mL | IC80 [24]: 9.97 µg/mL | IC50 [25]: < 1 ng/mL | IC80 [25]: 0.027 µg/mL | IC50, titer in TZM.bl cells [26]: > 50 µg/mL | IC80, titer in TZM.bl cells [26]: > 50 µg/mL | IC50 [27]: 0.019 µg/mL | IC80 [27]: 0.051 µg/mL | IC50 [28]: > 50 µg/mL | IC80 [28]: > 50 µg/mL | IC50 [29]: > 50 µg/mL | IC80 [29]: > 50 µg/mL | IC50, titer in TZM.bl cells [30]: 0.025 µg/mL | IC80, titer in TZM.bl cells [30]: 1.28 µg/mL | IC50 [31]: 0.103 µg/mL | IC80 [31]: 1.37 µg/mL | IC50, titer in TZM.bl cells [32]: 3 ng/mL | IC80, titer in TZM.bl cells [32]: 0.039 µg/mL | IC50, titer in TZM.bl cells [33]: 0.654 µg/mL | IC80, titer in TZM.bl cells [33]: > 50 µg/mL | IC50 [34]: < 1 ng/mL | IC80 [34]: 2 ng/mL | IC50 [35]: 1 ng/mL | IC80 [35]: 7 ng/mL | IC50, titer in TZM.bl cells [36]: 0.104 µg/mL | IC80, titer in TZM.bl cells [36]: 4.6 µg/mL | IC50 [37]: 0.587 µg/mL | IC80 [37]: 11.6 µg/mL
